19 sequences from the DeepSol protein solubility set can be followed below.

The data set can be described thus: soluble on expression in E. coli; label from the status in PepcDB or PDB records.
As for “MSLFSDVAETSSFVFAVAGADDEVVLETIRLALKQKLGKFLLFGKKEDKTLTANESVTWIQTDTAEAAAQGAILAVKNKEADILVKGFIPTATLMHHVLKKENGLRTDQLLSQIAIFDIPTYHKPLLITDCAMNVAPKTKEKIAITENALAVAHQIGITNPKIALLSAVEEVTAKMPSTLEAQEVVQHFGNQISVSGPLALDVAISKEAALHKGITDSSAGEADILIAPNIETGNALYKSLVYFAGAKVGSAVVGAKVPIVISSRNDSPENKLASFILTVRLVEKEGHHHHHH”, the “soluble on expression in E. coli” value was “soluble”.

On to “MSLGAALSDTNYAVIYDLHSHTTASDGLLTPETLVHRAVEMRVGTLAITDHDTTAAIPAAREEISRSGLALNLIPGVEISTVWENHEIHIVGLNIDIAHPAMRDFLAQQTERRQARGRLIAERLEKAHIPGAWEGALRLANGGAVTRGHFARFLVECGKAATMADVFKKYLARGKTGYVPPQWCTIEQAIDVIHHSGGKAVLAHPGRYDLSAKWLKRLVAHFADHHGDAMEVAQCQQSPNERTQLATLARQHHLWASLGSDFHQPCPWIELGRKLWLPAGVEGVWQTWEQPQISEGHHHHHH”, for which the “soluble on expression in E. coli” value was “soluble”.

Consider “MSLGAQTLEYWVYSDFAQGEALALQQDFIKEFQESHPGVTVNIVGKGDDDLTAGQIAGAASGNLPDVFMNAVGVGAQLVDVGALANIHDKWMAMPEEFRAQFNKGAVENCAPRPEEMYCIPYTGYGTLLFRNLTVLEEAGIDTSAPPADWADWLAQMEKVKAAGKFAIPDQALVFNSIAEMYGVTGDVSTWGIDWESKTTRIDPAVMTSVLEKFVAMQPLTSGTSRNDQATKDLFVTNQLAFHTIGPWVNPTYVEAVENSGLKYDFVLMPGETADKHGGIKNFEIVGVAPGENLDLAFEFATYITAKEQMARWAKLLSRYNSNDAAMAEADVAALPLVARSVAAVEVTMDVSPPYLIQPVPACYQSTVVDYVSATADGEFTPEEGAAEMIAELNDCLAGEGHHHHHH”, for which the “soluble on expression in E. coli” value is recorded as “soluble”.

For the sequence “MSLGDRFYDLISALHKSVRGSAPDAALYWYARILTAGGDPLYVARRLLAIASEDVGNADPRAMQVALAAWDCFSRVGAYEGERAIAQAIIYLSVAPKSNAVYTAFNTAKQQAKDLPDYDVPPHLRNAPTNLMKELGYGTEYRYAHDEPNAYAAGENYFPPELKDTQYYFPTNRGMEIQIKEKLERLREQDKSTEGHHHHHH”, the “soluble on expression in E. coli” value is given as “soluble”.

Consider “MSLGIGHPMWVGWCIIIAMRSIPASVESSVLRWARESCGLTEVAAARKLGLPDDRVAAWEVGEVVPTIAQLRKAAEVYKRSLAVFFLSEPPEGFDTLRDFRRLDGAASGQWTPGLHEEFRRAHTQRDFALELADAEDREIPGAWRLPLSGDEADADIAARIRKALIEVSPLPIPVASVDPYEHLNAWVSAIETSGVLVLATRGGKVAIDEMRGMCLYFDELPVIVLNGSDHPRPRLFSLLHEFVHVVLHTEGLCDVIADAHPSTQDRSLEARCNAIAAAVLMPADVVRARPEVIVRSETPSSWDYESLRPVAAHFGVSAEAFLRRLSTLGIVPVEVYRQRRAEFIAAHEDEAEGHHHHHH”, for which the “soluble on expression in E. coli” value is on record as “soluble”.

Consider “MSLGLGSSNRQTDDWNAKLYDERHRFVSAYGEDLIQWLAPKEGECVLDLGCGTGDLTEQIHQLGSRVIGVDVSESMIEQAKGKFPHLDFQVAEATDLSFSEKFDAIFSNAVLHWIKDAEEALTVIYRSLKPGGRFVAEFGGKGNVETIVNTLADTMSQADSRWSKEELPWFFPSIGQYTSLMEQVGFRVTHALHFNRPTLLEDGDGIRHWLAMFAESVLEGKSETERAEIVRFVEAEVKDALFDGTNWWADYKRIRVVGMKQEGHHHHHH”, for which the “soluble on expression in E. coli” value is “not soluble”.

In the case of “MSLGNGVGTCDLPPQFAYFFQFSHLSATRNLLCLDLDETLVCSKQRTPQTRETEDFYVVVEQRGKRYEFSVIKRPGLDVFLVSMAELYDLAIFTYAIKEYGDKIVNIIDPNRLIKYRMYRQHCVKYLVDKRHVIVKDLSRVGKPHSSILLIDNSASTGIWQRNNFLLVPSFYGDERDKVLYELKELLEGISKCKDFYTEIQSLRSVEGHHHHHH”, the “soluble on expression in E. coli” value is “soluble”.

In the case of “MSLGNKRVLITGATGFIGGYLVDEALRRQYEVWAAVRPHSDRSRLTDSRIRFVEIDYRDPSDIARLADKIAPEGESAWHLVIHNAGITKARDTSLFREINAEQTKRFLIGLQGAKHCPERFVLMSSMGSYGAPPDDCQPLSSSSVPKPTTAYGESKLLAEQYVQTFVTIPYTIIQPTGVYGPHDQDYLMAIRSVDKGFDFSTGNTPQTLTFIYAEDLASAVFIAAEHPDAAGQKYIVSDGKEYTDIEFGRMIQHLLDRKNVCHLRIPLPLVKATCYIGQKWADISGTLTPLNLDKYAIIAQRNWRCDSSPIRAIGFSPRYNLEQGLAETIRWARTTGQIREGHHHHHH”, the “soluble on expression in E. coli” value is reported as “soluble”.

In the case of “MSLGNTGVASADYLTAPFYNPALVASFEEHDDFGLLLPAIGVNVRDSDESLATIDDLQDSIDEFEAAPIPSPGQIDQLNRYLDDLQGNAPLTASSSLGLAVAIPTKRFSTNLFARGYLELIARPNIADYLSTGPGNEVADTKKRYEDSSVTMAAFGYVEYGAALAKEFEIKEQRISFGVTPKIQQLTTYYVVPTVADFELDDYEESEHKESAFNLDFGVVWLKDKFQVALAVKDLLSQEIDLKDKNGQKQDVYELNTQVSAGVAYRSDFFTAAMDLDLTKQERFKSLDDETQFVRFGVEGNAWGWAQLRAGYEIDLEDTVENAFTAGIGISPFDVVSLDIAGSYAGENQFGVSGNLAFTFEGHHHHHH”, the “soluble on expression in E. coli” value is given as “not soluble”.

With “MSLGNVGHLITPAIPLDYGELLAAPVTSSESMAQLRGRWIVLSVADGPCAEVCRQNLYKTRQMRLMLNKEIPRVRRLLLLTDPGAADALADWLRQDEFLAVAGLAPTLREKLEKAVGGPLQPGQILLLDPLGNLMMYYDADFDPYGVLKDLKHLLRASQIGEGHHHHHH”, the “soluble on expression in E. coli” value is listed as “soluble”.

As for “MSLGSDIPTLRAALARSDAWLVACFCAAWCDTCQQYRPKLLELARARPGHTFAWIDIEDHPDLLGEEDVENFPTLLVQAHGKVLFYGPMLPHIGHLERLLDSLDPQGREGHHHHHH”, the “soluble on expression in E. coli” value is “soluble”.

With “MSLGSLVIKKSIIAALVVALGIAGQSVQAESVPDETLQSEKVQTEKVQAEKTETDLFSPVEQIMNPFYPKYPPTKPATGEQAELIKRGEYLAKMGDCIACHTDVEGGTPAYAGGLPINTPFGLFYSPNITPDKETGIGNWTEKDFIRALKDGRDPKGRNYFPVFPYVYFSKITDDDARALYAYFMSIPPVKLKNKSLPFPFGVPGARFALWGWNLLFFFPQENSIEYDPDKSPEWNRGRYIVDTLGHCSMCHTPMNIFGSAKNRYYLTGSFIDGYWAPNITKYGLESASHQEVADVFKAGELINKAGPVAGPMAEVNHNSLSHLTEEDRLAIATYLKTVESEEYLGVSPSDLPPSVARGRQVYLKACLICHKDNKMGAPVIGDSASWYTRLKNSGLTGLYRHAIYGYNQMPVKGACVTCSDNDIISAVDYLLNASLTRSQWQDLASGGVKKYPASGKAVYNENCAVCHNEGKLGAPKIGDKVTWKPLIAQNMDVLIENTIRGKNHLPNGGCNHCSTDEVIEAIKYMVSQSKTEGNYSLWEGHHHHHH”, the “soluble on expression in E. coli” value is recorded as “not soluble”.

In the case of “MSLGTAVLDLMANGVDMLCWADPFFPDPVLPEHISQAVIKSMENGSASHYTMPIGNPELKEKIALKLQRYNNLTVEAQRNILITPGSDSGLLFAMMPFINNDDEVLIHSPSYPSNFLNVELLGGKPISVELKAENNFQIDIKDFENKITEKTKMVILTNPNNPTGTVLRRESLQAIADFIIAHDLILVVDQAFEDAIFDEIEFISIASLPGMWERTVSVFSFSKGMGLSGFRVGYLVADAQIVDVLFGCTVNVVGATNTSSQAGMIAALDEPSFMGEYTQIFERRRKVVFEMMNAIPGVCMVMPESGFLSWIDISKLGTSTFICDYLLQHAHVMVNSGVPYGQGGEGYIRLVHGCYKDDEKLYAVLTRIQQALMQLAKEGHHHHHH”, the “soluble on expression in E. coli” value is given as “not soluble”.

Consider “MSLGTSWQIGDVTIPNRVVVAPMAGVTNVAFRMICKAFGAGLVECEMISGQGIHYHNQRTLRMMAVNAQEHPMSIQIFGGTQETLVQAAQFVDQQTAADIIDINMGCPVNKVVNTDAGAKWLLDPQKVHDMVAAVVAAVKKPVTVKMRTGWDDHHIFAVDNALAAQRAGAAAVAMHGRTRKQMYQGQADWQILAEVAQHLTIPFMGNGDVRTPQDAQRMLNEVGADAVMIGRAVMGNPWLLQRINHYLATDELLAEPTPQEKTTIALEHLHKLCVAKGPVEGPRDFRNQVAYYLKGIPHTARTKVAITDATEEAVMHDLLVKFLERMTATIEGHHHHHH”, for which the “soluble on expression in E. coli” value is “not soluble”.

Turning to “MSLGYWGVMGNCFRRLSLFGQPTQAKYEMLCSSDDLETEELTFFLDMTYKDFGVYQNDIISHQKDTETMKTLLGLLPMYKKTKLRHTVMERCLSNCPNHVKDALCVELMKAEKILQTMDVVFMKTLIGEFSMCTENLNQLLNKFATDQSTLSDVEKINSLIEIDGENSKRLLVELDPILHEETGLYQALPNVVTEAPSEKVKSIRVESEGESV”, the “soluble on expression in E. coli” value is recorded as “not soluble”.

As for “MSLHEYELNQDLLAENKRLAEKNREALRESGTVAVNIMGAIGSGKTLLIERTIERIGNEVKIGAMLGDVVSKADYERVRRFGIKAEAISTGKECHLDAHMIYHRLKKFSDCDLLLIENVGNLICPVDFDLGENYRVVMVSVTEGDDVVEKHPEIFRVADLIVINKVALAEAVGADVEKMKADAKLINPRAKIIEMDLKTGKGFEEWIDFLRGILNVHSDSGQNEGGSHHHHHH”, the “soluble on expression in E. coli” value is given as “soluble”.

In the case of “MSLHFLYYCSEPTLDVKIAFCQGFDKQVDVSYIAKHYNMSKSKVDNQFYSVEVGDSTFTVLKRYQNLKPIGSGAQGIVCAAYDAVLDRNVAIKKLSRPFQNQTHAKRAYRELVLMKCVNHKNIISLLNVFTPQKTLEEFQDVYLVMELMDANLCQVIQMELDHERMSYLLYQMLCGIKHLHSAGIIHRDLKPSNIVVKSDCTLKILDFGLARTAGTSFMMTPYVVTRYYRAPEVILGMGYKENVDIWSVGCIMGEMVRHKILFPGRDYIDQWNKVIEQLGTPCPEFMKKLQPTVRNYVENRPKYAGLTFPKLFPDSLFPADSEHNKLKASQARDLLSKMLVIDPAKRISVDDALQHPYINVWYDPAEVEAPPPQIYDKQLDEREHTIEEWKELIYKEVMNSEEKTKNGVVKGQPSPSGAAVNS”, the “soluble on expression in E. coli” value is “soluble”.

Consider “MSLHIVVIGAGIVGASTALELQRDGHRVTLVEPGQPGGPQAASFGNGAWLSPASVVPMSMPGLWKKVPGYLMDPLGPLTIRWTALPALAPWLLRFIAAGATVPKVEATARALKALLSDAPERHTALAAEAGLADLVERKGLLYAYPDRAAFEAEALAWRLRRDNGIVWRELDGPALKAFEPTLHPRYGFGALVEAGAHCVDPGAYVAGLVAFAESRGLTRIEAAATGFDIVGGRLQAVRTAKGSVPCDRAVIAAGIHSRALAAEAGDKVSLASERGYHVVVATPESGPHLPVMPSDGKMANTPTRAGLRASGQVELAAVAAAPNWKRADVLLDHLLNTYPGLPRQVPEARLSRWLGHRPSTPDGVPVIGQASACTDIVHAFGHGHVGLASGPITGRLVADIIAGRPPERDIRPYAAARFRREGHHHHHH”, for which the “soluble on expression in E. coli” value is “soluble”.

As for “MSLHKRMKKKLILAAAGAMAVFSLAACSSGSKDIATMKGSTITVDDFYNQIKEQSTSQQAFSQMVIYKVFEEKYGDKVTDKDIQKNFDEAKEQVEAQGGKFSDALKQAGLTEKTFKKQLKQRAAYDAGLKAHLKITDEDLKTAWASFHPEVEAQIIQVASEDDAKAVKKEITDGGDFTKIAKEKSTDTATKKDGGKIKFDSQATTVPAEVKEAAFKLKDGEVSEPIAATNMQTYQTTYYVVKMTKNKAKGNDMKPYEKEIKKIAEETKLADQTFVSKVISDELKAANVKIKDDAFKNALAGYMQTESSSASSEKKESKSSDSKTSDTKTSDSEKATDSSSKTTESSSKEGGSHHHHHH”, the “soluble on expression in E. coli” value was “soluble”.
